Biological target: SARS-CoV-2 core replication-transcription complex (nsp12 polymerase with nsp7 and nsp8), elongating on RNA (SARS-CoV-2) (UniProt P0DTD1)
Experiment: single-molecule magnetic tweezers (RNA synthesis traces)

Substance “SARS-CoV-2 nsp13 helicase (wild type) (from UniProt P0DTD1 5325-5925) (enzyme)” has a KA of the first helicase (nsp13.1) binding to the core RTC of 0.22 nM⁻¹ and a KA of the second helicase (nsp13.2) binding to RTC-nsp13.1 of 0.47 nM⁻¹.

— article PMC13190607
